Assay results published in PMC2133028.
No end group written: not given here.

Target: GST-hCASK PDZ fusion protein (residues 489-572) (human)
Experiment: pull-down

B1: COOH-terminal syndecan-2 peptide (APTKEFYA-COOH) (peptide)
peptide: APTKEFYA-OH
IC50: 40 to 70 µM
